Source: the supplement of paper PMC11246515
± gives the standard deviation of the averaged measurements.

Test: total protein half-life in vivo (active degradation + dilution); higher = more stable protein
[1] = E. coli NCM3722 delta-clpP delta-lon delta-hslV, growth: N-lim chemostat, doubling time 6 h
[2] = E. coli NCM3722 delta-clpP, growth: N-lim chemostat, doubling time 6 h
[3] = E. coli NCM3722 delta-hslV, growth: N-lim chemostat, doubling time 6 h
[4] = E. coli NCM3722 delta-lon, growth: N-lim chemostat, doubling time 6 h
[5] = E. coli NCM3722 delta-smpB, growth: N-lim chemostat, doubling time 6 h
[6] = wild type E. coli NCM3722, growth: C-lim chemostat, doubling time 3 h
[7] = wild type E. coli NCM3722, growth: C-lim chemostat, doubling time 6 h
[8] = wild type E. coli NCM3722, growth: C-lim chemostat, doubling time 12 h
[9] = wild type E. coli NCM3722, growth: N-lim chemostat, doubling time 6 h
[10] = wild type E. coli NCM3722, growth: N-lim chemostat, doubling time 12 h
[11] = wild type E. coli NCM3722, growth: P-lim chemostat, doubling time 6 h
[12] = wild type E. coli NCM3722, growth: P-lim chemostat, doubling time 12 h

| Sequence | total protein half-life in vivo [1] [h] | total protein half-life in vivo [2] [h] | total protein half-life in vivo [3] [h] | total protein half-life in vivo [4] [h] | total protein half-life in vivo [5] [h] | total protein half-life in vivo [6] [h] | total protein half-life in vivo [7] [h] | total protein half-life in vivo [8] [h] | total protein half-life in vivo [9] [h] | total protein half-life in vivo [10] [h] | total protein half-life in vivo [11] [h] | total protein half-life in vivo [12] [h] |
| --- | --- | --- | --- | --- | --- | --- | --- | --- | --- | --- | --- | --- |
| MSRKDLANAIRALSMDAVQKANSGHPGAPMGMADIAEVLWNDFLKHNPTDPTWYDRDRFILSNGHASMLLYSLLHLTGYDLPLEELKNFRQLHSKTPGHPEIGYTPGVETTTGPLGQGLANAVGLAIAERTLAAQFNQPDHEIVDHFTYVFMGDGCLMEGISHEVCSLAGTLGLGKLIGFYDHNGISIDGETEGWFTDDTAKRFEAYHWHVIHEIDGHDPQAVKEAILEAQSVKDKPSLIICRTVIGFGSPNKAGKEEAHGAPLGEEEVALARQKLGWHHPPFEIPKEIYHAWDAREKGEKAQQSWNEKFAAYKKAHPQLAEEFTRRMSGGLPKDWEKTTQKYINELQANPAKIATRKASQNTLNAYGPMLPELLGGSADLAPSNLTIWKGSVSLKEDPAGNYIHYGVREFGMTAIANGIAHHGGFVPYTATFLMFVEYARNAARMAALMKARQIMVYTHDSIGLGEDGPTHQAVEQLASLRLTPNFSTWRPCDQVEAAVGWKLAVERHNGPTALILSRQNLAQVERTPDQVKEIARGGYVLKDSGGKPDIILIATGSEMEITLQAAEKLAGEGRNVRVVSLPSTDIFDAQDEEYRESVLPSNVAARVAVEAGIADYWYKYVGLKGAIVGMTGYGESAPADKLFPFFGFTAENIVAKAHKVLGVKGA | 4.98 ± 0.07 | 5.07 ± 0.55 | 4.95 ± 0.06 | 5.06 ± 0.13 | 4.75 ± 0.27 | 3.08 ± 0.16 | 5.63 ± 0.22 | 10.8 ± 0.69 | 4.52 ± 0.16 | 8.32 ± 0.16 | 5.83 ± 0.35 | 11.5 ± 0.12 |
| MVRIYTLTLAPSLDSATITPQIYPEGKLRCTAPVFEPGGGGINVARAIAHLGGSATAIFPAGGATGEHLVSLLADENVPVATVEAKDWTRQNLHVHVEASGEQYRFVMPGAALNEDEFRQLEEQVLEIESGAILVISGSLPPGVKLEKLTQLISAAQKQGIRCIVDSSGEALSAALAIGNIELVKPNQKELSALVNRELTQPDDVRKAAQEIVNSGKAKRVVVSLGPQGALGVDSENCIQVVPPPVKSQSTVGAGDSMVGAMTLKLAENASLEEMVRFGVAAGSAATLNQGTRLCSHDDTQKIYAYLSR | 5.23 ± 0.52 | 4.483 ± 0.036 | 4.05 ± 0.088 | 4.74 ± 0.28 | 3.8 ± 0.18 | 3.32 ± 0.21 | 6.09 ± 0.64 | 10.7 ± 1.1 | 4.436 ± 0.02 | 6.92 ± 0.5 | 5.84 ± 0.18 | 11.864 ± 0.0075 |
| MDRVLHFVLALAVVAILALLVSSDRKKIRIRYVIQLLVIEVLLAWFFLNSDVGLGFVKGFSEMFEKLLGFANEGTNFVFGSMNDQGLAFFFLKVLCPIVFISALIGILQHIRVLPVIIRAIGFLLSKVNGMGKLESFNAVSSLILGQSENFIAYKDILGKISRNRMYTMAATAMSTVSMSIVGAYMTMLEPKYVVAALVLNMFSTFIVLSLINPYRVDASEENIQMSNLHEGQSFFEMLGEYILAGFKVAIIVAAMLIGFIALIAALNALFATVTGWFGYSISFQGILGYIFYPIAWVMGVPSSEALQVGSIMATKLVSNEFVAMMDLQKIASTLSPRAEGIISVFLVSFANFSSIGIIAGAVKGLNEEQGNVVSRFGLKLVYGSTLVSVLSASIAALVL [P0AFF2] | 7.07 ± 0.54 | 6.45 ± 0.078 | 6.09 ± 0.15 | 5.82 ± 0.35 | 6.04 ± 0.57 | 3.61 ± 0.038 | 6.32 ± 0.029 |  | 6.36 ± 0.65 | 9.54 ± 3.4 | 5.57 | 13 ± 0.8 |
| MKHYSIQPANLEFNAEGTPVSRDFDDVYFSNDNGLEETRYVFLGGNQLEVRFPEHPHPLFVVAESGFGTGLNFLTLWQAFDQFREAHPQAQLQRLHFISFEKFPLTRADLALAHQHWPELAPWAEQLQAQWPMPLPGCHRLLLDEGRVTLDLWFGDINELTSQLDDSLNQKVDAWFLDGFAPAKNPDMWTQNLFNAMARLARPGGTLATFTSAGFVRRGLQDAGFTMQKRKGFGRKREMLCGVMEQTLPLPCSAPWFNRTGSSKREAAIIGGGIASALLSLALLRRGWQVTLYCADEAPALGASGNRQGALYPLLSKHDEALNRFFSNAFTFARRFYDQLPVKFDHDWCGVTQLGWDEKSQHKIAQMLSMDLPAELAVAVEANAVEQITGVATNCSGITYPQGGWLCPAELTRNVLELAQQQGLQIYYQYQLQNLSRKDDCWLLNFAGDQQATHSVVVLANGHQISRFSQTSTLPVYSVAGQVSHIPTTPELAELKQVLCYDGYLTPQNPANQHHCIGASYHRGSEDTAYSEDDQQQNRQRLIDCFPQAQWAKEVDVSDKEARCGVRCATRDHLPMVGNVPDYEATLVEYASLAEQKDEAVSAPVFDDLFMFAALGSRGLCSAPLCAEILAAQMSDEPIPMDASTLAALNPNRLWVRKLLKGKAVKAG | 4.59 ± 0.099 | 4.792 ± 0.021 | 4.36 ± 0.24 | 4.42 ± 0.19 | 3.84 ± 0.39 | 2.83 ± 0.03 | 5.48 ± 0.74 | 9.73 ± 0.51 | 4.41 ± 0.17 | 8.97 ± 0.84 | 4.57 ± 0.22 | 7.48 ± 1 |
| MSLPHLSLADARNLHLAAQGLLNKPRRRASLEDIPATISRMSLLQIDTINIVARSPYLVLFSRLGNYPAQWLDESLARGELMEYWAHEACFMPRSDFRLIRHRMLAPEKMGWKYKDAWMQEHEAEIAQLIQHIHDKGPVRSADFEHPRKGASGWWEWKPHKRHLEGLFTAGKVMVIERRNFQRVYDLTHRVMPDWDDERDLVSQTEAEIIMLDNSARSLGIFREQWLADYYRLKRPALAAWREARAEQQQIIAVHVEKLGNLWLHDDLLPLLERALAGKLTATHSAVLSPFDPVVWDRKRAEQLFDFSYRLECYTPAPKRQYGYFVLPLLHRGQLVGRMDAKMHRQTGILEVISLWLQEGIKPTTTLQKGLRQAITDFANWQQATRVTLGCCPQGLFTDCRTGWEIDPVA | 6.77 |  |  |  |  |  |  |  |  |  |  |  |
| MSLPSIPSFVLSGLLLICLPFSSFASATTSHISFSYAARQRMQNRARLLKQYQTHLKKQASYIVEGNAESKRALRQHNREQIKQHPEWFPAPLKASDRRWQALAENNHFLSSDHLHNITEVAIHRLEQQLGKPYVWGGTRPDKGFDCSGLVFYAYNKILEAKLPRTANEMYHYRRATIVANNDLRRGDLLFFHIHSREIADHMGVYLGDGQFIESPRTGETIRISRLAEPFWQDHFLGARRILTEETIL |  |  |  |  |  |  |  | 3.06 |  |  |  |  |
| MSELTDLLLQGPRSAPELRQRLAISQATFSRLVAREDRVIRFGKARATRYALLRPYRGIERIPVWRVDDTGKAHKFADIRLCWPQGSCLVTGADGDEQWFDGLPWYLTDLRPQGFLGRAWGRKLAAQLNLTDDIRLWQEEDVLYALTVFNGEYTGGWLVGEGNYQRWITAQHPAEIPLDQKLTHYEQLASDALAGEIVGSSAGGEQPKFTYYAQTPSGNKHVLVKFTVPQQTAVSQRWGDLLIAESIAAQILRDGGIHAIESTVLVTSNRQVFLEAERFDCKGNDGRLPIVSLEAVQSEFISSPGSWPQAMRRLCEQQLVTHQSVAQTEVIWAFGRLIANSDMHAGNLSFYLSEPPFALTPVYDMLPMVYAPNSAGMLRDAAIEVKFDLNVSKSAWLTAIPLAQQFWQTVARDPRISEAFRHIAQEMPEKIRQIEEKVARMGG |  | 5.39 ± 0.31 |  | 5.71 ± 0.22 | 4.46 ± 0.29 | 2.95 ± 0.45 | 5.9 ± 1.3 | 10.9 ± 0.43 | 4.54 ± 0.54 | 9.16 ± 2.6 | 2.5 | 6.85 ± 3.4 |
